Test results from PMC3828642, “1-Aminocyclopropane-1-carboxylic acid oxidase reaction mechanism and putative post-translational activities of the ACCO protein” (AoB Plants, 2013).
Where “and” joins values, the source holds several entries; their conditions need not be identical. Equal values may be shown once.

Target: 1-Aminocyclopropane-1-carboxylic acid (ACC) oxidase ACCO1 from apple (Malus domestica), His-Tag fusion protein (apple (Malus domestica))
Test: SEC; Sephadex G-200 column chromatography; activity of the monomer, dimer and tetramer forms; data not shown

Question: Which stoichiometry N does the source give for “1-Aminocyclopropane-1-carboxylic acid (ACC) oxidase ACCO1 from apple (Malus domestica), His-Tag fusion protein (enzyme)” here?
Answer: 2 and 4
